Results reported in PMC6298778, “A secretory pathway kinase regulates sarcoplasmic reticulum Ca^2+ homeostasis and protects against heart failure” (eLife, 2018).

B1: calsequestrin 2 (CSQ2), phosphorylated in vitro by Fam20C, His-tagged (natural protein, human, UniProt O14958 19-399, looked up)
chain: AEEGLNFPTYDGKDRVVSLSEKNFKQVLKKYDLLCLYYHEPVSSDKVTQKQFQLKEIVLELVAQVLEHKAIGFVMVDAKKEAKLAKKLGFDEEGSLYILKGDRTIEFDGEFAADVLVEFLLDLIEDPVEIISSKLEVQAFERIEDYIKLIGFFKSEDSEYYKAFEEAAEHFQPYIKFFATFDKGVAKKLSLKMNEVDFYEPFMDEPIAIPNKPYTEEELVEFVKEHQRPTLRRLRPEEMFETWEDDLNGIHIVAFAEKSDPDGYEFLEILKQVARDNTDNPDLSILWIDPDDFPLLVAYWEKTFKIDLFRPQIGVVNVTDADSVWMEIPDDDDLPTAEELEDWIEDVLSGKINTEDDDEDDDDDDNSDEEDNDDSDDDDDE
modifications: phosphoserine at 385 (phosphorylated in vitro by Fam20C; saturated phosphorylation >95%)
notes: also called phosphorylated CSQ2; phosphorylated His-CASQ2; source: E. coli BL21 (DE3)-RILP, purified (Ni-NTA), phosphorylated in vitro by Fam20C, then size exclusion chromatography; not shown: His6, C-terminal, kept
B2: calsequestrin 2 (CSQ2), unphosphorylated, His-tagged (natural protein, human, UniProt O14958 19-399, looked up)
chain: B1 chain
notes: Control sample of the turbidity assay: same treatment as the phosphorylated protein but without Fam20C; also called CASQ2; His-CASQ2; source: E. coli BL21 (DE3)-RILP, purified (Ni-NTA, size exclusion chromatography); treated in tandem without Fam20C; not shown: His6, C-terminal, kept

Experiments:
[1] = target: calsequestrin 2 (CSQ2, CASQ2) 19-399 (UniProt O14958); experiment: Ca2+-dependent turbidity, absorbance at 350 nm; conditions: reference: CSQ2 treated in tandem without Fam20C; sites S385
[2] = target: the molecule itself; experiment: turbidity assay; 4.5 uM phosphorylated or unphosphorylated His-CASQ2, 10 mM Tris-HCl pH 7.0, 10% glycerol, CaCl2 at the concentrations indicated; 30 min at room temperature; absorbance at 350 nm

Molecule | binding against the reference [1] | binding result [2]
calsequestrin 2 (CSQ2, CASQ2) 19-399 (from UniProt O14958) CSQ2 phosphorylated in vitro by Fam20C | stronger | 
B1 |  | binds
B2 |  | binds
